A short description of this data set: soluble on expression in E. coli; label from the status in PepcDB or PDB records.
Turning to “MHNVVITAAVRSPIGTFGGALKNVTPVELAVPVLQEAVKRGGVEPHEVDEVILGHCIQRTDEANTARTAALAAGFPDTVTGYTIQRQCSSGMQAIMSAAMQIQLGVSEVVVAGGVEAMSSSPYALKQHRWGQRLQHGEIRDTVWEVLEDPIHHIMMGETAENLVEQYEITREEQDEVALRSHTLALKAIESGYFDDQIVPITIKERRKEVVFSKDEHPRADITAEKLAGLKPAFRKDGSVTAGNASGLNDGSAVLVLMSEEKAKEKGLQPLARIVGYSVAGVDPKIMGIGPAPAIRKGLEKVDWSLEDADLLEINEAFAAQYLAVEKELGLDREKVNVNGSGVGLGHPIGCTGARITVSLIHELKRRGLEKGIASLCVGGGIGVALFIEAL”, the “soluble on expression in E. coli” value was “not soluble”.
The value for “PGSEFELGNKGNNILNSNESRLNVNENNILREKFENYARIVFQFNNSRQANGNFDIANEFISILSSANGTRNAQLLESWKILESMKSKDINIVEVGKQYLEQQFLQYTDNLYKKNMNEGLATNVNKIKSFIDTKLKKADKSWKISNLTVINGVPIWALIFYLLRAGLIKEALQVLVENKANIKKVEQSFLTYFKAYASSKDHGLPVEYSTKLHTEYNQHIKSSLDGDPYRLAVYKLIGRCDLSRKNIPAVTLSIEDWLWMHLMLIKEKDAENDPVYERYSLEDFQNIIISYGPSRFSNYYLQTLLLSGLYGLAIDYTYTFSEMDAVHLAIGLASLKLFKIDSSTRLTKKPKRDIRFANILANYTKSFRYSDPRVAVEYLVLITLNEGPTDVELCHEALRELVLETKEFTVLLGKIGRDGARIPGVIEERQPLLHVRDEKEFLHTITEQAARRADEDGRIYDSILLYQLAEEYDIVITLVNSLLSDTLSASDLDQPLVGPDDNSETNPVLLARRMASIYFDNAGISRQIHVKNKEICMLLLNISSIRELYFNKQWQETLSQMELLDLLPFSDELSARKKAQDFSNLDDNIVKNIPNLLIITLSCISNMIHILNESKYQSSTKGQQIDSLKNVARQCMIYAGMIQYRMPRETYSTLINIDVSL” was “soluble”; that for “SNAMSVIKIEKALKLDKVIFVDVRTEGEYEEDHILNAINMPLFKNNEHNEVGTIYKMQGKHEAIQKGFDYVSYKLKDIYLQAAELALNYDNIVIYCARGGMRSGSIVNLLSSLGVNVYQLEGGYKAYRNFVLEY” was “soluble”.
With “MGSDKIHHHHHHMNIQQMKYVAAIANNGSFREAAKKLFITQPSLSNSIRELEEELGISLFLRTNKGAFLTEEGMVFLEQAEKVLVQMELLENRYRETVTSERFSISSQHYDFLGEVIAKVLKKYGDQYKDFRVFETTTLKVIEDVKGFHSELGIIYLNEQNSVSIERYLEQANLAYEVISTFNTHIFLGNHHPLAKQKEIHLEELVPYPQVRFNQEGSNFSYFSEDLVEIPEQESVIHTTDRGTLMNLLVETNAYASGSGVVTGFTKKEIRLVPLAPALENRICLLFPKNREISPIGRYFIKELKALFKKEVDTKTFSTKE” the entry was “not soluble”.
With “MYQVIRMYGAMEPWWFLDDWKEDITKVLEFDNYHEALQCYQKEWAKLRRRYSDFNSHGDIMTAFWNKQDQHWCEECGDYVQRYHSLALLTDWQETPSSWFRPTFTKQLEHHHHHH” the entry was “soluble”; with “MNLEMLESQPVPEIDTLREEIDRLDAEILALVKRRAEVSKAIGKARMASGGTRLVHSREMKVIERYSELGPDGKDLAILLLRLGRGRLGH”, “soluble”.

The values above are taken from the DeepSol protein solubility set.
